One block for each substance: values may come before it.
Experiments:
[1] = biological target: FakA_LC (FakA_L and FakA_C domains connected) (Staphylococcus aureus); assay: SEC-SAXS; Superdex 200 10/300, 20 mM Tris, pH 7.5, 200 mM NaCl, 1% glycerol; 300 μl FakA (4 mg/ml), FakA_NL (6.2 mg/ml) or FakA_LC (6 mg/ml) loaded
[2] = biological target: FakA_LC (FakA_L and FakA_C domains connected) (Staphylococcus aureus); assay: SEC; analytical size exclusion chromatography on a S-75 13/300 column, 20 mM Tris, pH 7.5, 200 mM NaCl; oligomerization state estimated from a standard curve of protein standards
[3] = biological target: FakA_αβ bundle with helix (Staphylococcus aureus); assay: AUC; sedimentation velocity of single constructs, c(s) model in SEDFIT, 20 mM Tris, pH 7.5, 200 mM NaCl, 5 mM DTT, 20 °C, 50,000 rpm, Rayleigh interference optics
[4] = biological target: FakA C terminus, FakB substrate-binding domain (FakA_C) (Staphylococcus aureus); assay: AUC; FakB1 mixed with each isolated FakA domain; c(s) model by the text, 'sedimentation equilibrium' by the legend of Figure 4; 20 mM Tris, pH 7.5, 200 mM NaCl, 5 mM DTT, 20 °C; apparent KD from equilibrium concentrations of duplicate experiments, single site equilibrium model
[5] = biological target: FakA_NL (FakA_N and FakA_L domains connected) (Staphylococcus aureus); assay: SEC-SAXS; Superdex 200 10/300, 20 mM Tris, pH 7.5, 200 mM NaCl, 1% glycerol; 300 μl FakA (4 mg/ml), FakA_NL (6.2 mg/ml) or FakA_LC (6 mg/ml) loaded
[6] = biological target: FakA_NL (FakA_N and FakA_L domains connected) (Staphylococcus aureus); assay: SEC; analytical size exclusion chromatography on a S-75 13/300 column, 20 mM Tris, pH 7.5, 200 mM NaCl; oligomerization state estimated from a standard curve of protein standards
[7] = biological target: FakA, kinase component of fatty acid kinase (Staphylococcus aureus) (Staphylococcus aureus); assay: SEC-SAXS; Superdex 200 10/300, 20 mM Tris, pH 7.5, 200 mM NaCl, 1% glycerol; 300 μl FakA (4 mg/ml), FakA_NL (6.2 mg/ml) or FakA_LC (6 mg/ml) loaded
[8] = biological target: FakA linker region, central domain (FakA_L) (Staphylococcus aureus); assay: AUC; sedimentation velocity of single constructs, c(s) model in SEDFIT, 20 mM Tris, pH 7.5, 200 mM NaCl, 5 mM DTT, 20 °C, 50,000 rpm, Rayleigh interference optics

stoichiometry N [1]: 2
stoichiometry N [2]: 2
Substance: FakA_LC (FakA_L and FakA_C domains connected) (domain or fragment)

stoichiometry N [3]: 2
Substance: FakA_αβ bundle with helix (domain or fragment)

Kd [4]: 16 µM
stoichiometry N [4]: 1
Substance: FakB1, fatty acid binding protein component of fatty acid kinase (Staphylococcus aureus) (from UniProt X5EH37 1-288) (natural protein)

stoichiometry N [5]: 2
stoichiometry N [6]: 2
Substance: FakA_NL (FakA_N and FakA_L domains connected) (domain or fragment)

stoichiometry N [7]: 2
Substance: FakA, kinase component of fatty acid kinase (Staphylococcus aureus) (enzyme)

stoichiometry N [8]: 2
Substance: FakA linker region, central domain (FakA_L) (domain or fragment)
